Measurements as given in US20240360245A1 (Daiichi Sankyo, published 2024).
Substitutions are numbered along the chain they refer to.

B1: human chimeric 151D antibody c151D (antibody, human IgG1, V domains shown)
VH: EVQLVESGGGLVQPGRSKKLSCSASGFTFSNYYMAWVRQAPTQGLEWVASIGTVGGNTYYRDSVKGRFTISRDDAKSTLYLQMDSLRSEDTATYYCAREDYGGFPHWGQGVMVTVSS
VL: NIVMTQSPTSMFISVGDRVTMNCKASQNVGTNVDWYQQKTGQSPKLLIYGASNRYTGVPDRFTGSGSGTDFTLTISNMQAEDLAVYDCLQYKYNPYTFGTGTKLELNR
B2: human chimeric 198D antibody c198D (antibody, human IgG1, V domains shown)
VH: QVQLRESGPGLVQPSQTLSLTCTVSGFSLTSFHVSWVRQPPEKGLEWIATISSGGGTYYNSALKSRLSISRDTSKSQVFLKMSTLQTEDTAMYFCARISGWGHYYVMDVWGQGASVTVSS
VL: DIQMTQSPASLSGSLGETVTIQCQASEDIYSGLAWYQQKPGKSPQLLIYGAGSLQDGVPSRFSGGGSGTHYSLKISSMQTEDEGVYFCQQGLKFPLTFGSGTKLEIKR
B3: 110F antibody (antibody, human IgG1, lambda, V domains shown)
VH: EVQLLESGGGLVQPGGSLRLSCAASGFTFSSYGMHWVRQAPGKGLEWVAGISWNSAITVYADSVKGRFTISRDNSKNTLYLQMNSLRAEDTAVYYCAKDAGGRYSGSYYFDYWGQGTLVTVSS
VL: QSVLTQPPSASGTPGQRVTISCTGSSSNIGAGYDVHWYQQLPGTAPKLLIYGNSNRPSGVPDRFSGSKSGTSASLAISGLRSEDEADYYCQSYDRSLNWVFGGGTKLTVLG
B4: 110F Fab (ELISA-positive clone from the n-CoDeR Fab phage library) (Fab, V domains shown)
VH: B3 VH
VL: B3 VL
notes: Fab produced in Escherichia coli and tested as culture supernatant
B5: humanized anti-human GARP antibody h151D-H1L1 (antibody, human IgG1, kappa, V domains shown)
VH: EVQLVESGGGLVQPGGSLRLSCAASGFTFSNYYMAWVRQAPGKGLEWVSSIGTVGGNTYYADSVKGRFTISRDDSKNTLYLQMNSLRAEDTAVYYCAREDYGGFPHWGQGTLVTVSS
VL: NIVMTQSPDSLAVSLGERATINCKASQNVGTNVDWYQQKPGQSPKLLIYGASNRYTGVPDRFSGSGSGTDFTLTISSLQAEDVAVYDCLQYKYNPYTFGQGTKVEIKR
notes: Produced in Potelligent CHOK1SV cells; also called MACA-1511a
B6: humanized anti-human GARP antibody h151D-H4L4 (antibody, human IgG1, kappa, V domains shown)
VH: B5 VH with S49A, A61R, N77S
VL: B5 VL with D9S, A12S, V13A, L15V, E17D, A19V, Q42K, A80P, V83F, V85T
notes: Produced in Potelligent CHOK1SV cells; also called MACA-1514a
B7: humanized anti-human GARP antibody h198D-H3L4 (antibody, human IgG1, kappa, V domains shown)
VH: EVQLVESGGGLVKPSQTLSLTCTVSGFSLTSFHVSWVRQPPGKGLEWIATISSGGGTYYNPSLKSRVTISRDTSKNQVSLKLSSVTAADTAVYYCARISGWGHYYVMDVWGQGTLVTVSS
VL: DIQMTQSPSSLSASVGDRVTITCQASEDIYSGLAWYQQKPGKSPKLLIYGAGSLQDGVPSRFSGSGSGTHYTLTISSLQPEDFATYFCQQGLKFPLTFGQGTKVEIKR
notes: Produced in Potelligent CHOK1SV cells; also called MACA-1983a

Legend:
[1] = molecular target: human GARP expressed on cells (GARP-transfected HEK-293T cells; endogenous on L428 cells and activated Treg) (human) (UniProt Q14392); experiment: flow cytometry on CD3/CD28 bead-activated human PBMC gated on CD4-positive cells, FITC-labeled anti-IgG secondary antibody against PE anti-Foxp3
[2] = molecular target: human GARP expressed on cells (GARP-transfected HEK-293T cells; endogenous on L428 cells and activated Treg) (human) (UniProt Q14392); experiment: flow cytometry on anti-CD3/anti-CD28 activated human PBMC, Alexa Fluor 647-labeled antibody against PE anti-Foxp3; the panel Antibody not-added prints 0.18
[3] = molecular target: human GARP expressed on cells (GARP-transfected HEK-293T cells; endogenous on L428 cells and activated Treg) (human) (UniProt Q14392); experiment: flow cytometry on anti-CD3/anti-CD28 activated human PBMC, Alexa Fluor 647-labeled antibody against PE anti-Foxp3; the panel Antibody not-added prints 0.13
[4] = molecular target: T1, recombinant human GARP (R&D Systems, catalog number 6055-LR) (human, UniProt Q14392 20-627); experiment: SPR (Biacore T200), antibody captured on Protein A, recombinant human GARP as analyte, 1:1 fit
T1 construct: Bought soluble protein; In the phage panning and Fab screening it was in part biotinylated; also called antigen
T1 sequence: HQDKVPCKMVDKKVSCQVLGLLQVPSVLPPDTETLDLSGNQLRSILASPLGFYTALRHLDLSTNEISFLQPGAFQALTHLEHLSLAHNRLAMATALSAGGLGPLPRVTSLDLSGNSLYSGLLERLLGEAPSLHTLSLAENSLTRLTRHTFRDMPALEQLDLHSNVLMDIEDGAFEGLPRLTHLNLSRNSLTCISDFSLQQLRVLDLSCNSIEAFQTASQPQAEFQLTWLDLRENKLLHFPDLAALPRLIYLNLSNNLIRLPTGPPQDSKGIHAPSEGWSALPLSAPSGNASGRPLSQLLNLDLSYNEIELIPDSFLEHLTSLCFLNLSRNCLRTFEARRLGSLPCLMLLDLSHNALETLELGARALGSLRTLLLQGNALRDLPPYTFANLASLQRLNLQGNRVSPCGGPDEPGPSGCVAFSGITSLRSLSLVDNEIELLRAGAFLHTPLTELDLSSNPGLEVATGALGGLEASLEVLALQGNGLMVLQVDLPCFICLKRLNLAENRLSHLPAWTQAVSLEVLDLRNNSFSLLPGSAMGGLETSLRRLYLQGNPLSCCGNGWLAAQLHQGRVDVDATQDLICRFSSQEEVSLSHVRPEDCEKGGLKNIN
Description: (§1) The dissociation constant between the c151D or c198D produced in Example 6)-4 and human GARP was evaluated by using Biacore T200 (GE Healthcare Bioscience), according to a capture method, which comprises capturing the antibody as a ligand with the immobilized Protein A and then analyzing the dissociation constant using an antigen (recombinant human GARP: R&D Systems) as an analyte. HBS-EP+ (manufactured by GE Healthcare Bioscience) was used as a running buffer, and a Protein A Sensor Chip (manufactured by GE Healthcare Bioscience) was used as a sensor chip.
(§2) The human chimeric antibody (1 μg/mL) was added onto the chip at a rate of 10 μL/min for 20 seconds, and a dilution series solution (8 to 128 nM) of the antigen was then added at a flow rate of 30 μl/min for 120 seconds. Subsequently, the dissociation was monitored for 480 seconds. As a regeneration solution, Glycine 1.5 (manufactured by GE Healthcare Bioscience) was added at a flow rate of 20 μl/min for 30 seconds.
1:1 Fitting models were used in data analysis, and the association rate constant ka, the dissociation rate constant kd, and the dissociation constant (KD; KD=kd/ka) were calculated.

[5] = molecular target: T1, recombinant human GARP (R&D Systems, …); experiment: ELISA on plate-coated human GARP (1 ug/mL), 50 nM antibody, HRP anti-human Fc, chemiluminescence
Description: The plate was washed with the ELISA buffer three times. […] On the other hand, 100 μL of HRP-labeled anti-mouse Fc antibody (R&D Systems), which had been 5000-fold diluted with PBS, was added to the wells treated with mouse anti-GARP antibody and mouse IgG. The plate was incubated at room temperature for 1 hour with mixing.

[6] = molecular target: T1, recombinant human GARP (R&D Systems, …); experiment: ELISA, Fab in E. coli culture supernatant on coated or NeutrAvidin-captured biotinylated GARP
Description: 50 μL GARP, which had been diluted to 2 μg/mL with PBS (0.01 M phosphate buffered saline (pH 7.4) containing 0.138 M sodium chloride and 0.0027 M potassium chloride; Sigma-Aldrich), was added to each well of a 384-well Maxi-sorp plate (Black, Nunc), and it was then incubated overnight at 4° C. for coating the plate. Alternatively, 50 μL of NeutrAvidin (Life Technologies) which had been diluted to 1 μg/mL with PBS was added to such a 384-well Maxi-sorp plate for coating the plate (by incubating overnight at 4° C.). Thereafter, the plate was washed with an ELISA buffer (PBS (Sigma-Aldrich) supplemented with 0.05% Tween-20 (Bio-RAD)) three times, and biotinylated GARP was then added thereto (1 pmol/50 μL PBS/well), followed by incubation at room temperature for 1 hour with mixing. The plate was washed with ELISA buffer three times, was then blocked with Blocker Casein (Thermo Scientific), and was further washed with the ELISA buffer three times. Thereafter, a culture supernatant containing Fab produced by Escherichia coli was added, and the plate was then incubated at room temperature for 1 hour with mixing. […] Ten minutes later, chemiluminescence was measured using a plate reader (Envision 2104 Multilabel Reader, Perkin Elmer), and GARP-bound Fab was isolated.

[7] = molecular target: T2, human GARP expressed on cells (GARP-transfected HEK-293T cells; endogenous on L428 cells and activated Treg) (human, UniProt Q14392 20-662); experiment: flow cytometry on CD3/CD28 bead-activated human PBMC gated on CD4-positive cells, FITC-labeled anti-IgG secondary antibody against PE anti-Foxp3
T2 construct: The transfected cells carry a human GARP cDNA clone (Origene) in pcDNA3.1(+); also called hGARP; endogenously expressed GARP
T2 sequence: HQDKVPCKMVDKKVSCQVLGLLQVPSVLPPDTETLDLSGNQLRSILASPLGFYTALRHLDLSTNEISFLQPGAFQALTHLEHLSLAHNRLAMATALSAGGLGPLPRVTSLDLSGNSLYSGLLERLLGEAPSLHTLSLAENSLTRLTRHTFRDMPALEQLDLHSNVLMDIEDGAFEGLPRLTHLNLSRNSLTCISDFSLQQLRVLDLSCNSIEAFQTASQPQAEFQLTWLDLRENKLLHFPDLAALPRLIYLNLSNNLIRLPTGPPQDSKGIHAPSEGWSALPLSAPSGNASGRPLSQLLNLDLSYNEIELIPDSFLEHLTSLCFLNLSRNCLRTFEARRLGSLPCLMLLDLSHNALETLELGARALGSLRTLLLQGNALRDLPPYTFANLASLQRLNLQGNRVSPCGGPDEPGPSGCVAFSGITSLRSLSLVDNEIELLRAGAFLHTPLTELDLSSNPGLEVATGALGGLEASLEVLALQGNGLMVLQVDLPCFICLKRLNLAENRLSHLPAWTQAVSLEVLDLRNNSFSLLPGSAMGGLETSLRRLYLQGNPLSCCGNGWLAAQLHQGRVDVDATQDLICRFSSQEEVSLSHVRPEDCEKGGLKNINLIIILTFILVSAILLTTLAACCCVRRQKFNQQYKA

[8] = molecular target: T1, recombinant human GARP (R&D Systems, …); experiment: SPR (Biacore T200), antibody captured on Protein A, GARP antigen as analyte, 1:1 fit
Description: as §1, with “between each of” for “between”, “humanized anti-human GARP antibodies h151D-H1L1, h151D-H4L4 and h198D-H3L4” for “c151D or c198D”, “7)-10” for “6)-4”, “and” for “and human”, “by” for “with”, “antigen” for “antigen (recombinant human GARP: R&D Systems)”
as §2, with “was” for “was then”
1:1 Fitting model was used in data analysis, and the association rate constant ka, the dissociation rate constant kd, and the dissociation constant (KD; KD=kd/ka) were calculated.

Molecule | percent of CD4-positive cells in Q2 (GARP-positive, Foxp3-positive) [7] | percent of CD4-positive cells in Q3 (GARP-positive, Foxp3-negative) [7] | Kd [8] | also measured
human IgG (antibody) |  |  |  | percent of CD4-positive cells in Q2 (GARP-positive, Foxp3-positive) [1]: 0.039%; percent of CD4-positive cells in Q3 (GARP-positive, Foxp3-negative) [1]: 0.242%
Alexa Fluor 647-labeled anti-GARP antibody (G14D9, eBioscience) |  |  |  | percent of cells in the lower right quadrant (GARP-positive, Foxp3-negative) [2]: 0.81; percent of cells in the upper right quadrant (GARP-positive, Foxp3-positive) [3]: 4.19
B1 |  |  |  | Kd [4]: 470 pM
B2 |  |  |  | Kd [4]: 170 pM
B3 |  |  |  | binding result [5]: binds
B4 |  |  |  | binding result [6]: binds
B5 | 3.54% | 2.41% | 1800 pM | 
B6 | 3.38% | 2.59% | 1200 pM | 
B7 | 3.47% | 3.25% | 88 pM | 
